Results taken from publication PMC9385667, “Structural basis for proton coupled cystine transport by cystinosin” (Nature Communications, 2022).

Assays:
[1] = biological target: T1, Arabidopsis thaliana cystinosin (plant cystinosin) (Arabidopsis thaliana, UniProt P57758, W24F); experiment: nanoDSF tryptophan fluorescence quench, DDM-purified protein; format: binding; conditions: 3.2 mM L-cystine, 10 μM protein, pH 7.2, 25 °C
T1 construct: gene At5g40670; codon-optimised gene expressed in Saccharomyces cerevisiae BJ5460 as cleavable C-terminal GFP-His fusion; tag cut with TEV protease; DDM-purified; reconstituted in POPE:POPG liposomes for transport
T1 sequence (P57758 1-270 W24F): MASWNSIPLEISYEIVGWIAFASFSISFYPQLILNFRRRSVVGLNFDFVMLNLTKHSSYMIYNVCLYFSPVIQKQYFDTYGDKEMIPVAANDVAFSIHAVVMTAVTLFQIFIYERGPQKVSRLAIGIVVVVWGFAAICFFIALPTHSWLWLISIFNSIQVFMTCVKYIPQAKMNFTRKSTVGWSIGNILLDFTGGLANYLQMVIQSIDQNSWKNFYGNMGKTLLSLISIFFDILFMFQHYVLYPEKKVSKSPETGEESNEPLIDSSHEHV

[2] = biological target: T2, Arabidopsis thaliana cystinosin (plant cystinosin) (Arabidopsis thaliana, UniProt P57758, S228A); experiment: as above; format: binding; conditions: 3.2 mM L-cystine, 10 μM protein, pH 7.2, 25 °C
T2 construct: gene At5g40670; codon-optimised gene expressed in Saccharomyces cerevisiae BJ5460 as cleavable C-terminal GFP-His fusion; tag cut with TEV protease; DDM-purified; reconstituted in POPE:POPG liposomes for transport
T2 sequence (P57758 1-270 S228A): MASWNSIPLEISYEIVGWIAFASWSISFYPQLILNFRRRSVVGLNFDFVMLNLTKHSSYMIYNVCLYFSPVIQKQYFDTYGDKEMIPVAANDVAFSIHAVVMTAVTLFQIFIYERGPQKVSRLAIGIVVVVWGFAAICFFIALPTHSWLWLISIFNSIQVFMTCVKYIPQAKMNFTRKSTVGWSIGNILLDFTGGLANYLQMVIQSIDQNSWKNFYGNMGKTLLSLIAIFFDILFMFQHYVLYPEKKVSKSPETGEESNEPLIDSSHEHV

[3] = biological target: T3, Arabidopsis thaliana cystinosin (plant cystinosin) (Arabidopsis thaliana, UniProt P57758); experiment: X-ray crystal structure, […] Å; conditions: complex with sybody Syb39; lipidic cubic phase; central binding site, inward-open state
T3 construct: gene At5g40670; codon-optimised gene expressed in Saccharomyces cerevisiae BJ5460 as cleavable C-terminal GFP-His fusion; tag cut with TEV protease; DDM-purified; reconstituted in POPE:POPG liposomes for transport
T3 sequence (P57758 1-270): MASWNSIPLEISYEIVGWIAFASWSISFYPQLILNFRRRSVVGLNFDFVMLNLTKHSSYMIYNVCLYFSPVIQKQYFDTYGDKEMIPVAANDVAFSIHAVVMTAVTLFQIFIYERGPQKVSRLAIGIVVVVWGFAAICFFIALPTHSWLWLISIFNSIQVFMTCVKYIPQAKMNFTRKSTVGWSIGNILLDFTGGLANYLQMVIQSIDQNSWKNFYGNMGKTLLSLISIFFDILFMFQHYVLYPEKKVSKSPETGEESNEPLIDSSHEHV

[4] = biological target: T4, Arabidopsis thaliana cystinosin (plant cystinosin) (Arabidopsis thaliana, UniProt P57758, P169G); experiment: nanoDSF tryptophan fluorescence quench, DDM-purified protein; format: binding; conditions: 3.2 mM L-cystine, 10 μM protein, pH 7.2, 25 °C
T4 construct: gene At5g40670; codon-optimised gene expressed in Saccharomyces cerevisiae BJ5460 as cleavable C-terminal GFP-His fusion; tag cut with TEV protease; DDM-purified; reconstituted in POPE:POPG liposomes for transport
T4 sequence (P57758 1-270 P169G): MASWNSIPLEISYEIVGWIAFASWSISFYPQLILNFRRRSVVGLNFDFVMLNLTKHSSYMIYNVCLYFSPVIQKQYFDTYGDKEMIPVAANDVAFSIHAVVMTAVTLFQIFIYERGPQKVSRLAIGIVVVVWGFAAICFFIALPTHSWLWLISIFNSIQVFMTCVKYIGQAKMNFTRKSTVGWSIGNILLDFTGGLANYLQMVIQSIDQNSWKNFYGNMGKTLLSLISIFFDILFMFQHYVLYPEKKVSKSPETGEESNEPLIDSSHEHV

[5] = test system: T5, N[C@@H](CSSC[C@H](N)C(=O)O)C(=O)O; experiment: two-electrode voltage clamp in Xenopus laevis oocytes; format: cell-based, Homo sapiens; conditions: pH 5, -40 mV, ND-96, proton-coupled transport
T5 construct: no GFP; plasma membrane of Xenopus laevis oocytes

[6] = biological target: T3, Arabidopsis thaliana cystinosin (plant cystinosin); experiment: pyranine proton-flux transport assay in proteoliposomes; format: biochemical; conditions: 500 μM substrate, pH 7.2, 25 °C, valinomycin / K+ gradient
[7] = biological target: T6, Arabidopsis thaliana cystinosin (Arabidopsis thaliana, UniProt P57758 1-270); experiment: BLI
T6 chain: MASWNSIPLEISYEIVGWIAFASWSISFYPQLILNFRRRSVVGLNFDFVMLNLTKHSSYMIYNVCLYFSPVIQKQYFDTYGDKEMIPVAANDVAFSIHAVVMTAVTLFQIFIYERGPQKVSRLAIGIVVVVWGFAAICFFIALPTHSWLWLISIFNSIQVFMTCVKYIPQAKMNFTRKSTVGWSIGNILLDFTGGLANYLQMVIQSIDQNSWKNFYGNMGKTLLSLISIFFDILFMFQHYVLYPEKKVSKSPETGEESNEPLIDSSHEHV

[8] = biological target: T7, Arabidopsis thaliana cystinosin (Arabidopsis thaliana, UniProt P57758); experiment: crystal structure; apo cystinosin with Nb1 and Nb4, lipidic cubic phase, 2.33 Å, PDB 7ZKZ; conditions: both partners purified
T7 construct: cystinosin from Arabidopsis thaliana, Uniprot P57758; codon-optimised synthetic gene in pDDGFP-Leu2d; also called plant cystinosin; the transporter; source: Saccharomyces cerevisiae BJ5460, purified in DDM (Ni-NTA, TEV cleavage, reverse IMAC, Superdex 200)

[9] = biological target: T7, Arabidopsis thaliana cystinosin; experiment: crystal structure; apo cystinosin with Syb39 and Nb4, lipidic cubic phase (monoolein), 20 °C, 2.65 Å, PDB 7ZK1; conditions: both partners purified
[10] = substrate: N[C@@H](CSSC[C@H](N)C(=O)O)C(=O)O; experiment: two-electrode voltage clamp in Xenopus laevis oocytes; format: cell-based, Homo sapiens; conditions: pH 5, -40 mV, ND-96, proton-coupled transport
[11] = substrate: N[C@@H](CSSC[C@H](N)C(=O)O)C(=O)O; experiment: pyranine proton-flux transport assay in proteoliposomes; format: biochemical, Arabidopsis thaliana; conditions: pH 7.2 both sides, 25 °C, valinomycin / K+ gradient

Q: `N[C@@H](CSSC[C@H](N)C(=O)O)C(=O)O` [L-cystine] was tested. Which “% loss of binding relative to WT” value [1] did it give?
A: ~ 50%

Q: What about the “% loss of binding relative to WT” value [2] of the same molecule?
A: ~ 50%

Q: What about the “X-ray crystal structure, 3.37 Å” value [3] of the same molecule?
A: we determined the structure of the ligand bound state in complex with Syb39

Q: And the “nanoDSF tryptophan fluorescence quench, DDM-purified protein” value [4]?
A: it still retains WT levels of L-cystine binding

Q: “human cystinosin (WT) (Homo sapiens; DEL362-367)” was tested. Which Km [5] did it give?
A: 117 ± 2.4 µM

Q: How did the “transport, % of WT levels at 500 μM” value [6] turn out when `N[C@@H](CSS(=O)(=O)C[C@H](N)C(=O)O)C(=O)O` [L-cystine-S,S-dioxide] was run?
A: ~ 80%

B1: Nb4 (VHH)
VHH: QVQLVESGGGLVQAGGSLRLSCAASGRTITPISTYVMGWFRQDPGKEREFVASISWNGANTYYADSVKGRFTISRDNAKNTVYLQMNSLKPEDTAVYYCAADPESHVRLRLGVGAYWGRGTQVTVSS
notes: llama nanobody; also called llama derived nanobody (Nb4)
Q: What does the source list for B1?
A: Kd [7]: 90 nM; binding result [8]: binds

B2: sybody 39 (VHH)
VHH: QVQLVESGGGLVQAGGSLRLSCAASGFPVYRNRMHWYRQAPGKEREWVAAIESAGQETHYADSVKGRFTISRDNAKNTVYLQMNSLKPEDTAVYYCNVKDEGWYWQTYDYWGQGTQVTVSA
notes: synthetic nanobody selected from the loop library; also called Syb39
Q: What does the source list for B2?
A: Kd [7]: 760 nM; binding result [9]: binds

B3: human cystinosin Δ2-115 variant (ΔN) (Homo sapiens; DEL2-115) (protein)
chain: MLVIRSSAISIINQVIGWIYFVAWSISFYPQVIMNWRRKSVIGLSFDFVALNLTGFVAYSVFNIGLLWVPYIKEQFLLKYPNGVNPVNSNDVFFSLHAVVLTLIIIVQCCLYERGGQRVSWPAIGFLVLAWLFAFVTMIVAAVGVTTWLQFLFCFSYIKLAVTLVKYFPQAYMNFYYKSTEGWSIGNVLLDFTGGSFSLLQMFLQSYNNDQWTLIFGDPTKFGLGVFSIVFDVVFFIQHFCLYRKRP
notes: no GFP; Xenopus laevis oocytes
Q: B3 was tested. Which Km [10] did it give?
A: 117 ± 28.9 µM

B4: Nb1 (VHH)
VHH: QVQLVESGGGSAQPGGSLRLSCAVSGSVSELNTMGWFRQAPGKQRELVARITATSDATNYADSVKGRFTISRDNGWNTVYLQSNSLKPEDSAVYYCNVEGAPSWFSGIRSYWGQGTQVTVSS
notes: llama nanobody
Q: With B4 as the molecule, how does the Kd [7] read?
A: 189 nM

Q: Does B4 bind [8]?
A: binds

B5: Arabidopsis thaliana cystinosin (plant cystinosin) (Arabidopsis thaliana) (protein)
chain: MASWNSIPLEISYEIVGWIAFASWSISFYPQLILNFRRRSVVGLNFDFVMLNLTKHSSYMIYNVCLYFSPVIQKQYFDTYGDKEMIPVAANDVAFSIHAVVMTAVTLFQIFIYERGPQKVSRLAIGIVVVVWGFAAICFFIALPTHSWLWLISIFNSIQVFMTCVKYIPQAKMNFTRKSTVGWSIGNILLDFTGGLANYLQMVIQSIDQNSWKNFYGNMGKTLLSLISIFFDILFMFQHYVLYPEKKVSKSPETGEESNEPLIDSSHEHV
notes: codon-optimised gene expressed in Saccharomyces cerevisiae BJ5460 as cleavable C-terminal GFP-His fusion; tag cut with TEV protease; DDM-purified; reconstituted in POPE:POPG liposomes for transport
Q: For B5, which Km ([11]; proton-coupled symport) is on record?
A: 19 ± 2.9 µM

B6: Arabidopsis thaliana cystinosin (plant cystinosin) (Arabidopsis thaliana; Y167F) (protein)
chain: MASWNSIPLEISYEIVGWIAFASWSISFYPQLILNFRRRSVVGLNFDFVMLNLTKHSSYMIYNVCLYFSPVIQKQYFDTYGDKEMIPVAANDVAFSIHAVVMTAVTLFQIFIYERGPQKVSRLAIGIVVVVWGFAAICFFIALPTHSWLWLISIFNSIQVFMTCVKFIPQAKMNFTRKSTVGWSIGNILLDFTGGLANYLQMVIQSIDQNSWKNFYGNMGKTLLSLISIFFDILFMFQHYVLYPEKKVSKSPETGEESNEPLIDSSHEHV
notes: as for B5
Q: How did the Km [11] turn out when B6 was run?
A: 73.3 ± 12.8 µM
